Results taken from the DeepSol protein solubility set.

assay: soluble on expression in E. coli; label from the status in PepcDB or PDB records

| Sequence | soluble on expression in E. coli |
| --- | --- |
| MSKTFRVSKVTSGNSKAIQQTKPITILLMGVDTGSKGRKETWEGNSDTMILVTVNPKTKRTTMTSLERDLLADVEGSGEAKLNSAYAEGGADLAISTIQKVLDIDIDYYALINMHGMIDLVDAVGGIEVTNHFDFPISIAENEPEFQAKVEPGTHKINGEQALVYSRMRYDDPDGDYGRQKRQREVIQKIVAKLLKMDSIGSYKKILSAVSSNVQTSINLGDSTTLRGLMGYSEALKNIKSYQLAGSDAMINGGSYQVASTEDILKVQNRIKKEVGKKGVSESKLKTSLVLNDFGTSSYVSDDFVNSTGSYEAGPSEATGGGSVSTYYGGTTYGNSYTENTSNYVQDQATTAPTINYNGSGVTTYNLVPAAQLEHHHHHH | soluble |
| MSKVMNALKQSQQKYLQAQPVSRRTYTEQEPTAMNPSRWLHLALWLVPGLVTAGVMTYQRYELVQQEVANRQTEPTTVQVDAPLERLAYPEFQDLQPTFVESGLDEPYPEEDVTALADNIVAPPATIQASGQQSASNKALGDLDLTQLSPELALRVQAIMRDQSSEPATPSTPTSAAVSLTQHSDRYQGQLPALNFQMHAFSSNEQKRWIKVNGVEYREGDMLTPEVKLESIKPQSSVIIFGGEEIEIPALYDWKG | not soluble |
| MSKWIILSDNHKETGILYHIYELHKDADKFLHLGDSEFSYNDTELSLYQRVKGNCDFYPEFLEEEITEENGIRAFYTHGHLYQVNQTRMKLAEKAKELGCLFAFYGHTHVAKYEQIGGIHVINPGSISQSRSQIEETFAELVYKEDENTIILNFRNRENQIIETVKIEFLEHHHHHH | soluble |
| MSKYAILGLVLVGTVASLDFIGRTQSAAIKGRLVCEGKPASGVKVKLMESDNSFGPGFLDSDDKMASGKADSHGEFNLSGSTKEITGIEPYLVVFHDCKDGITPCQRVFRVNVPKSYTNSGSSAKKTYDAGVIELAGKYPGETRSCLN | not soluble |
| MSKYLHSEKAYLDLINAVKDKFNYKKSVVPYIIYFLLKTGMRYGELIALTWEDIDFDKGIFKTYRRFNSETSQFVPPKNKTSIRIVPVDNECLEILKNLKIEQNQSNKELGLQNTNNMVFQHFGYPNSVPSTNGTNKVLRGIVQELNIEPIITTKGARHTYGSFLWHRGYDLGIIAKILGHKDISMLIEVYGHTLEEKIQEEYNEIKQLWLEHHHHHH | soluble |
| MSLAACSGGGNSSQGSGGSKFAFWDMPWGSPGPDYLAAGKEISAAFSGGSATYQSISWDGWLQTFSSAIAAGTGPAISTGGAFQSLQYYVQDAVHPADGVIAKLRSKGQLDDFLPGTLDVFKYKGAYTALPWNVDSRLLWYRKSLLEKAGVEEPRSWDDLYRVGVALKKNDVYGMVASGGAGGNAYQTFLSFVFNNGGGLFDKDGEPQCVTDANVEAVEFLMKLAKDGIMDPGSVSYTVANLNDQFSSGAAALSILPPDIANSFEDPRLKADITLGSPLTSPNGTKGTMAYTSDLILYTGDWDTDVVEDFAVYYLDAMSAYWKKGVLNKVPVRQSILDLPEVQAQPNLVKATKEWLPVGKSLTQLAGEPFPEINAVDGGQAITQWAQQVIQAKSSGEQTLRTLQDGIEKVMEGHHHITTDPNSSSVDKLAAALEHHHHHH | soluble |
| MSLAADYTEQDAMRVQAVKTYIDNVLQEGRSQIKTTPLLADGINTTTRKPVEWIYPDGRTATISNFANQQNFLRALTAMSVVTEDQRYQLEAVRITRYFMDNFIADNGLFYWGGHRFVNLDTLELEGPQNKNSVHELKNHYPYYPFLYHVDPHATERYIKAFWQAHVEDWQSLDMGRHGSYSKNYDDKVFHRPIPASLVDQSKLPIMPETKGLTFINAGSDLIYAAYQLDWLAPSANAQGSAAWGQYLMTQYKLAKHPKTGAPVYQFTSPKKREWPPQSDKDTNSKYGDRAARQFGPELGNIAREGNVLFKSNDKSIVFNNALIELHLAEQRNDAAIREQVVDALLNFYRLAYNPENGTIKPIFSDGTSIEGIPLARDGYYGPKGRVFNAHKPKTEEYLLPILRAYRLQADPELWQLAANMTHHYGWGSLGNDAKAKPTLNMQLSSVSPMTLFSAIELYQITQQPEYLEFARAAADKLVEKRFVRGYFLANPRYLNASIDAIEPLALLTLDATLKGKTAQVAPYLSGSGYIHGEFAGKENAYDTNEIYKQTREGHHHHHH | soluble |
| MSLAAESTYKKLVMLVDDNETDNFIHRRVLEMGNFSKNIIVKNSGKSALEYLEANQSNSELIPEVIFLDINMPIVDGFVFLFEFESFPESIKERCKIIVLSSSDNKKDIDRIVDNDYVVHFITKPLSEDSIAELKKMVEGHHHHHH | soluble |
| MSLAAKVVPTLQQLAWQQMELTAFLHFGINTFTDSEWGDGKEDPALFNPVELDARQWVRILHEAGFRMVILTAKHHDGFCLWPTATTRHSVASSPWREGKGDVVKEVRAACEEYGMKFGIYLSPWDRNAECYGDSHRYNRFFVSQLTELLTHYGEVHEVWFDGANGEGPNGKRQEYDWETFYDTIRRLQPQAVMAIMGDDVRWVGNERGLGRTTEWSATVLTPGIYSRSKTERNRLGIRENSPDLGSREVLKEAGEIFWYPSEVDVSIRPGWFYHAAEDKKVKSLDKLVDIYFQSVGYNSVLLLNVPPDRRGLIHEADALRLKEWADYLGRAFAHDRVVDSARYAVVQGHAVEEYALESKTHINILMLQEDITKGQRTEAFTVEAWVDGAWQEIGRGTTIGYKRLLRIPAVETDRIRVRIEQCRLPVNLCRVAVYYAEGHHHHHH | soluble |
| MSLAANMYRVGDYVYFENSSSNPYLIRRIEELNKTANGNVEAKVVCFYRRRDISSTLIALADKHATLSVCYKAGPGADNGEEGEIEEEMENPEMVDLPEKLKHQLRHRELFLSRQLESLPATHIRGKCSVTLLNETESLKSYLEREDFFFYSLVYDPQQKTLLADKGEIRVGNRYQADITDLLKEGEEDGRDQSRLETQVWEAHNPLTDKQIDQFLVVARSVGTFARALDCSSSVRQPSLHMSAAAASRDITLFHAMDTLHKNIYDEGHHHHHH | not soluble |
| MSLADFTHLLRPSNFDELIGQDHLSKDKAPLRVLCQKGVLGHSFFFGPSGTGKTSIARIIAKTMELPFYEFNATSIKIEQLRAIFEQYKNTLQKPLIFIDEVHRLAKNQQEVLLPVMENNSALIIGASTENPFFSLTSAIRSRSMLFELHHISNEALSRLLRRALDSSDITCSDEALEYLIKSSGGDARSMLKLLEFASNIGTHITLDILKSLRPNALSVGSSEAGVHYDLSSAMIKSIRGSDMDAAIYYLARLIDGGESAEFIARRLVILASEDVGNANPQALTLATSAMTSVSKIGYPEARIILSQAVIYLCASPKEGHHHHHH | not soluble |
| MSLADIPYGTDYPDAPWIDRDGHVLIDDGGKPTQVHRGQARIAYRLAERYQDKLLHVAGIGWHSWDGRRWAADDRGEAKRAVLAELRQALSDSLNDKELRADVRKCESASGVAGVLDLAAALVPFAATVADLDSDPHLLNVANGTLDLHTLKLRPHAPADRITKICRGAYQSDTESPLWQAFLTRVLPDEGVRGFVQRLAGVGLLGTVREHVLAILIGVGANGKSVFDKAIRYALGDYACTAEPDLFMHRENAHPTGEMDLRGVRWVAVSESEKDRRLAESTIKRLTGGDTIRARKMRQDFVEFTPSHTPLLITNHLPRVPGDDTAIWRRIRVVPFEVVIPADEQDRELDARLQLEADSILSWAVAGWSDYQRIGLSQPDAVLAATSNYREDSDTIKRFIDDECVTSSPVLKATTTHLFEAWQRWRVQEGVPEISRKAFGQSLDTHGYPVTDKARDGRWRAGIAVRGADDFDEGHHHHHH | soluble |
| MSLADLLDTVKQRGALKIALEGTYPPFNFKDAKQQLTGFDVEIATEIARRMKVKPEFVTAEWSGLLAGLQSGKFDIVVNQVGVTAQRQAVFDFSQPYTYSSAQLIVRKNESRDFKNLADLKGKKLGVGQGSNYADMAKAAAGVQVKTYPGAPEYLQDLATGRLDAALNDSLLIPFAIKQAKLPLKAGAPVGEVAAMAIPFAKGNPQFKSEIDKALGGMKADGTFRKISVKWFGIDVSKAEGHHHHHH | soluble |
| MSLADVQQFPESIAELVPKFHVLKLPMVTRFRSITEREVMLFEGPDGWAEFSPFTEYGSVESSRWLQAALEFAGLLPTAEVEPSAVGSAAETVGQSVAVNATLPACATSEVGPILARYGPVGTVKAKVAEHGIDSLPEDWDRLREFRRLFPETTLRLDANAGYALPEALAACTEFAEFDLQYFEQPVAAVEDMARLREQLSARELPVVLAADESIRKAEDPVRVAELGAAEVVIVKVQPLGGIAAARSVLEACGLPAVVSSALESSVGLAAGAQLAATLPRTQRSRELLGEHPACGLGTGRLFAEDVVEPAQSLRPVDGQIPVTRIVPDPQRLETLAVDPGRFDWWEKRLQECWTALLSRRSEGHHHHHH | not soluble |
| MSLAELAAVPAAPDDRLYSADNTQSSGETIRHLTWSGYEAANVQRPFEKKFDCQTGVDLFTSNLDAFNRLDDGAWREFDHATFDMAWLPDLAEAGLIRPLDYEAWKPYTFDKYTDLFQRENGYEFAFLDEDYNFDADGQLYGVPQRFGWASFALNTDVVSESDARSYDAAWADEYDVGVYDLPFWGVQIVMLREGIDPYATHTDAEVERIREATVALFENAAGVYADVGSLNTALAAGDIDIAFVSGNWINGSLRRGGRFEYEARVPDEGGVIWVETTTMLKGSHPSVSTNYLAYMQHGITAKNLMWPTVGGTNVVPHQSSIDRLNRRQRTVLRIDDLQDIIDKSRFYTGEGHHHHHH | soluble |
| MSLAIRQHVGALFTDLYEVTMAQAYWAERMSGTAVFEIFFRKLPPGRSYIMAAGLADVVEFLEAFRFDEQDLRYLRGLGQFSDEFLRWLAGVRFTGDVWAAPEGTVIFPNEPAVQLIAPIIEAQLVETFVLNQIHLQSVLASKAARVVAAARGRPVVDFGARRAHGTDAACKVARTSYLAGAAGTSNLLAARQYGIPTFGTMAHSFVQAFDSEVAAFEAFARLYPATMLLVDTYDTLRGVDHVIELAKRLGNRFDVRAVRLDSGDLDELSKATRARLDTAGLEQVEIFASSGLDENRIAALLAARCPIDGFGVGTQLVVAQDAPALDMAYKLVAYDGSGRTKFSSGKVIYPGRKQVFRKLEHGVFCGDTLGEHGENLPGDPLLVPIMTNGRRIRQHAPTLDGARDWARQQIDALPPELRSLEDTGYSYPVAVSDRIVGELARLRHADTAEAHPGSNVVGAKAKRPEGHHHHHH | not soluble |
| MSLAIRVVCISDTHDLKVDIPRGDILIHAGDLTDGGTVSDIQKQLDWLKEQPHPIKVVVAGNHDSWFDQKSRPEEDARSGAKPDMDGLIYLESGLTVQKVKGRTVNIFGVPDIPEIGPKEFAFQYATDNHPWLSKVPPQTDILVTHCPPKHHLDLGLGDSNLLREVWRVKPRLHVFGHVHCAYGKESVFFDNFQQTYERIMSRPRRGPILDFIPNEAWLDEGHHHHHH | not soluble |
| MSLAKIVNVRPVLLSTPYGFEGCAENALHLPNGIRGCSMVEITLDNGVKGLGEGYLGVFAPDVFTSIARLVGTAITGDDISNGYGAVLAKAKTVTAYWSLQGAAQHVISAIEIALVDALSRVREIPAVELFGGKKVESIAMYGSGGDSLHPQYMAQELEQLAQRGIQTIKIRARHHQAAKTIWTIEAGRQYGIRVAVDMTQNLSIEGQTAEQVQAFCDLIQRETGEELVFVEECLGLDKLTQLPLLALQEGIAVAGGEIVTTKEELFDRIDANYYNVVQPDASVLGGIGDTIAVCEYAKQRSVNPVVHSWGGPVAMMANYVAAFATGCSLIEYPMPHFELRNVMCNLESRIHDGHFHLGDDIGLGVTLTDDIEGQFPHTNDALYHCFPMEDGLQQLEDSHRHWVKAEGHHHHHH | soluble |
